Measured values reported in US20030186281A1, “Modified tetracycline repressor protein compositions and methods of use” (priority 2001, published 2003).
Changes are numbered by the printed parent chain. Names may count otherwise.

B1: TetRrevAtc4-10: revTetR(BD) I59N L60F A61G (protein)
chain: MSRLDKSKVINSALELLNEVGIEGLTTRKLAQKLGVEQPTLYWHVKNKRALLDALAVENFGRHHDYSLPAAGESWQSFLRNNAMSFRRALLRYRDGAKVHLGTRPDEKQYDTVETQLRFMTENGFSLRDGLYAISAVSHFTLGAVLEQQEHTAALTDRPAAPDENLPPLLREALQIMDSDDGEQAFLHGLESLIRGFEVQLTALLQIV
modifications: Modified tetracycline repressor
notes: revTetR(BD) I59N L60F A61G
B2: TetRrevAF1/5: revTetR(BD) L14V G24G Y93D R94G D95G (protein)
chain: B1 chain with L14V, N59I, F60L, G61A, Y93D, R94G, D95G
modifications: Modified tetracycline repressor
notes: revTetR(BD) L14V G24G Y93D R94G D95G
B3: TetRrevAF6/12: revTetR(BD) L14F E15E G96V K98E V99L L101P (protein)
chain: B1 chain with L14F, N59I, F60L, G61A, G96V, K98E, V99L, L101P
modifications: Modified tetracycline repressor
notes: revTetR(BD) L14F E15E G96V K98E V99L L101P
B4: TetRrevAF1/4: revTetR(BD) N18K D95V G96V A97V (protein)
chain: B1 chain with N18K, N59I, F60L, G61A, D95V, G96V, A97V
modifications: Modified tetracycline repressor
notes: revTetR(BD) N18K D95V G96V A97V
B5: TetRrevAF2/7: revTetR(BD) Y93C D95E A97T (protein)
chain: B1 chain with N59I, F60L, G61A, Y93C, D95E, A97T
modifications: Modified tetracycline repressor
notes: revTetR(BD) Y93C D95E A97T
B6: TetRrevAD3/2: revTetR(BD) A56P E58H A61A H63Y (protein)
chain: B1 chain with A56P, E58H, N59I, F60L, G61A, H63Y
modifications: Modified tetracycline repressor
notes: revTetR(BD) A56P E58H A61A H63Y
B7: TetRrevAD3/5: revTetR(BD) L17L N18K E19V I22T 53Y A54S (protein)
chain: B1 chain with N18K, E19V, I22T, D53Y, A54S, N59I, F60L, G61A
modifications: Modified tetracycline repressor
notes: revTetR(BD) L17L N18K E19V I22T 53Y A54S
B8: TetRrevAD2/2: revTetR(BD) L14I G21R A56V (protein)
chain: B1 chain with L14I, G21R, A56V, N59I, F60L, G61A
modifications: Modified tetracycline repressor
notes: revTetR(BD) L14I G21R A56V
B9: TetRrevAF1/3: revTetR(BD) G24G D95A G96R (protein)
chain: B1 chain with N59I, F60L, G61A, D95A, G96R
modifications: Modified tetracycline repressor
notes: revTetR(BD) G24G D95A G96R
B10: TetRrevAF7/2: revTetR(BD) L14V E15V E23D K48K G96L G102A (protein)
chain: B1 chain with L14V, E15V, E23D, N59I, F60L, G61A, G96L, G102A
modifications: Modified tetracycline repressor
notes: revTetR(BD) L14V E15V E23D K48K G96L G102A
B11: TetRrevAF7/1: revTetR(BD) Y93C G96R K98N (protein)
chain: B1 chain with N59I, F60L, G61A, Y93C, G96R, K98N
modifications: Modified tetracycline repressor
notes: revTetR(BD) Y93C G96R K98N

System: tet operator sequence
Assay: β-galactosidase activity of a tetracycline-regulated promoter in transformed E. coli with revTetR, in the presence and absence of anhydrotetracycline (atc)
Format: cell-based, Escherichia coli
Details: RevTetR isolate cultured in the absence of anhydrotetracycline (ATC)
Method: The relative activity of revTetR repressors was determined at 28° C. and 37° C. for each clone by measuring β-galactosidase activity of a tetracycline-regulated promoter in transformed Escherichia coli in the presence and absence of the tetracycline analog, anhydrotetracycline (atc). The relative β-galactosidase activity was measured in standard Miller units and is presented as the percent of maximal expression as measured in the absence of Tet repressor. […] With respect to each mutant, as well as the wild-type controls, FIG. 2 provides two horizontal bars; the upper horizontal bar represents the level of β-galactosidase activity in the absence of anhydrotetracycline (−atc) while the lower horizontal bar represents the level of β-galactosidase activity in the presence of anhydrotetracycline (+atc).
The pool of mutated Tet repressors was cloned into plasmid pWH1411 (Baumeister et al., 1992, Proteins: Struct. Funct. Genet. 14: 168-77), which carries a TetR(B) gene, to provide a TetR(BD) chimera that included, as the amino-terminal portion, amino acid residues 1 to 50 of the TetR(B) gene and, as the carboxyl-terminal portion, amino acid residues 51 to 208 of the TetR(D) gene. The resulting plasmid pool was screened in a genetic assay which positively selects for a functional interaction between a Tet repressor and its cognate operator using E. coli strain WH207(λWH25) (the construction of this strain is described in detail in Wissmann et al., (1991) Genetics 128: 225-32). In this E. coli strain, tet operators direct the expression of divergently arranged β-galactosidase (lacZ) and Lac repressor (lacI) genes and the lac regulatory region directs the expression of a galactokinase (galK) gene on plasmid pWH414. Binding of Tet repressors to tet operators turns off transcription of the lacI and lacZ genes. The absence of Lac repressor allows for expression of the galK gene, which enables the E. coli strain to use galactose as a sole carbon source, which serves as one marker. The lacZ^− phenotype serves as a second marker. Thus, bacteria containing Tet repressors which bind to tet operators, have a Gal^+, lacZ^− phenotype. Bacteria containing wild-type Tet repressors have a Gal^+, lacZ^− phenotype in the absence of tetracycline. Modified “reverse” Tet repressors (revTetR) were selected based upon a Gal^+, lacZ^− phenotype in the presence of tetracycline.
The ability of each revTetR clone to bind to its cognate tet operator sequence and regulate transcription in a prokaryotic organism, Escherichia coli, in the presence and absence of a tetracycline analog (anhydrotetracycline, atc) was determined (Table 3, FIG. 2). The relative ratios of non-repressed to repressed levels of transcription for the 15 clones range from about 1.4-fold to about 50-fold at 28° C. and from about 1.3-fold to 40-fold at 37° C. For example, clone 4b comprising an amino acid substitution of glutamic acid for glycine at position 96 (e.g., SEQ ID NO. 24) repressed transcription 19-fold at 37° C. but to a less extent at 28° C. (5.7-fold, Table 3). Furthermore, clones 14, 5a and 7 comprising the arginine for glycine substitution at position 96 and further comprising a substitution or substitutions of serine for threonine at position 103 and valine for glutamic acid at position 114; leucine for proline at position 159; or glutamine to histidine at position 188, respectively, have pronouncedly different activities.
wherein each underlined base was present in approximately 85% of the oligonucleotides, while the remaining approximately 15% of the oligonucleotides contained one of the other three, non-wild type bases at that position. Similar mutagenic, partially randomized oligonucleotides were prepared for mutagenesis of the coding regions for amino acids 14-25 and 93-102. It was predicted that, according to a binomial distribution, each oligonucleotide would contain three to four mutations. […]

Molecule	β-Galactosidase Activity, Cultured Without ATC
B1	69.401
B2	102.015
B3	82.6734
B4	81.2613
B5	70.3163
B6	60.3284
B7	89.8129
B8	94.968
B9	59.773
B10	58.8637
B11	89.3536

Same assay, conditions: RevTetR isolate cultured in the presence of anhydrotetracycline (ATC)

Molecule	β-Galactosidase Activity, Cultured With ATC
B1	11.275
B2	1.1988
B3	1.3259
B4	13.459
B5	2.8977
B6	3.5891
B7	1.1481
B8	5.2312
B9	1.2536
B10	3.7321
B11	1.3792
